Assays:
Experiment in all cases: biochemical
266 human kinases [1] = biological target: 266 human kinases (Homo sapiens, UniProt P36888, D835Y); type: biochemical; conditions: Flt3(D835Y)(h); 100 μM
Method in brief: (§1)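 Steps: kinase transfers radiolabelled phosphate from ATP onto a positively charged substrate; the substrate is trapped on a negatively charged filter; bound radioactivity is counted by scintillation and compared with uninhibited (100%) activity.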

266 human kinases [2] = biological target: T1, 266 human kinases (Homo sapiens, UniProt P21709); type: biochemical; conditions: EphA1(h); 100 μM
T1 sequence (P21709 26-976): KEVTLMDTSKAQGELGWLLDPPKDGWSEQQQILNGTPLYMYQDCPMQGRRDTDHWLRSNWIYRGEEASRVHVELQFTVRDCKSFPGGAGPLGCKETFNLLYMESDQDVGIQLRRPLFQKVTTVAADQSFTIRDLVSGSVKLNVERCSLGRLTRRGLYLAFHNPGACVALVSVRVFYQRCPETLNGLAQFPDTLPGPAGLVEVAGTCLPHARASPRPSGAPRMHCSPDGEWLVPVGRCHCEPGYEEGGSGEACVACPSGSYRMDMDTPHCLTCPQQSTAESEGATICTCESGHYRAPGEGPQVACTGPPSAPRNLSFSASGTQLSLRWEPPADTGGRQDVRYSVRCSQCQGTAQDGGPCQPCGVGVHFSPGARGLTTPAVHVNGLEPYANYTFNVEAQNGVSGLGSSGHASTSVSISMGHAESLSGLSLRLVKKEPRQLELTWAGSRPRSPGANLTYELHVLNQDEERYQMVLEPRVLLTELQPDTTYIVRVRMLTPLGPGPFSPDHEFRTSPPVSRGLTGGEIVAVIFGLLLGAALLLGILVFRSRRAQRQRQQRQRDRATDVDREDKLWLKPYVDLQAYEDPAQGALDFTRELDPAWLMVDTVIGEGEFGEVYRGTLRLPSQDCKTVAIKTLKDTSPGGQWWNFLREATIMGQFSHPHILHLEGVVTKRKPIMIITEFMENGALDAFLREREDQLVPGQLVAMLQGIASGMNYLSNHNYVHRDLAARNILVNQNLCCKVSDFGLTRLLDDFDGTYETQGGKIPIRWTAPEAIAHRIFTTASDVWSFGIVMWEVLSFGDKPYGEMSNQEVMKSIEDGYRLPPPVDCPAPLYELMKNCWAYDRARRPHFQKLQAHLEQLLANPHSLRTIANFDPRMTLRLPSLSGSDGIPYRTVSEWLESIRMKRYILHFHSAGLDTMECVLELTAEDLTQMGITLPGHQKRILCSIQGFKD
Method in brief: as §1

266 human kinases [3] = biological target: 266 human kinases (Homo sapiens, UniProt Q13464); type: biochemical; conditions: ROCK-I(h); 100 μM
266 human kinases (Homo sapiens, UniProt Q13464), sequence (Q13464 whole entry): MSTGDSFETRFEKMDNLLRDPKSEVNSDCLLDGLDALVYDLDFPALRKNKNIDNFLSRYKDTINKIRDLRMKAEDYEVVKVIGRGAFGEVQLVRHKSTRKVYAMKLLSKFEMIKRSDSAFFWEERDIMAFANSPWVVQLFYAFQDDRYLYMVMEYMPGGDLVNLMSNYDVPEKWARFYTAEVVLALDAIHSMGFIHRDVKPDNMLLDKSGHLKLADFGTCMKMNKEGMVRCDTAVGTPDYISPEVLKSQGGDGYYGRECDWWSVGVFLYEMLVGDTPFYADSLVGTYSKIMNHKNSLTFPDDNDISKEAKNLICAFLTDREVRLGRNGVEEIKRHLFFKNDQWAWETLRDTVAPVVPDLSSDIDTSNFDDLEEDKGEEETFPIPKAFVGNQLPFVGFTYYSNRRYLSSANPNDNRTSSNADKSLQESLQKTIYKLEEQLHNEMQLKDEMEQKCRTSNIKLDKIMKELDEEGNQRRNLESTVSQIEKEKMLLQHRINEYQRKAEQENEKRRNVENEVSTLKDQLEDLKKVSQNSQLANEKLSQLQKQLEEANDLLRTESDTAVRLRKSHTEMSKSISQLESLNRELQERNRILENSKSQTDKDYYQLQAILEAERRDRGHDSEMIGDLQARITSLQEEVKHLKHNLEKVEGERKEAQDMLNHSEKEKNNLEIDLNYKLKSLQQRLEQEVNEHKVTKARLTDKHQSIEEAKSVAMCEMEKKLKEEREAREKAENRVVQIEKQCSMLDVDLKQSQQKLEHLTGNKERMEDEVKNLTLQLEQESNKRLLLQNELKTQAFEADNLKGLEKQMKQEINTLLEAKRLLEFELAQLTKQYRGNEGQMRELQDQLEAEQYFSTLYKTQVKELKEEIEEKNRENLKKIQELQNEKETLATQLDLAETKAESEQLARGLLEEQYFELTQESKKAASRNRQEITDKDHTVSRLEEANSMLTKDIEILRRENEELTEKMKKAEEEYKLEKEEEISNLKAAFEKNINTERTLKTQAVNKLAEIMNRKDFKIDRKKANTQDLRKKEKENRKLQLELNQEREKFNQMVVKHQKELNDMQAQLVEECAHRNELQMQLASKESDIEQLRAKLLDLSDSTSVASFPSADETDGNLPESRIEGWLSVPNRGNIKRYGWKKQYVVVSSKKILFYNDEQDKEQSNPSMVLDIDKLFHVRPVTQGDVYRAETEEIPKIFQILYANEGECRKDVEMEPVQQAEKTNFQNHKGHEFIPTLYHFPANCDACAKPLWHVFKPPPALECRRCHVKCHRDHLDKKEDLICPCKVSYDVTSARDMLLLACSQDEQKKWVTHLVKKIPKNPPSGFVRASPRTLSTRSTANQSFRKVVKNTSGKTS
Method in brief: as §1

266 human kinases [4] = biological target: 266 human kinases (Homo sapiens, UniProt P00533, T790M); type: biochemical; conditions: EGFR(T790M)(h); 100 μM
Method in brief: as §1

Yes (h) = Yes (h) (Homo sapiens, UniProt P07947); conditions: Yes(h); 100 μM
Yes (h), sequence (P07947 whole entry): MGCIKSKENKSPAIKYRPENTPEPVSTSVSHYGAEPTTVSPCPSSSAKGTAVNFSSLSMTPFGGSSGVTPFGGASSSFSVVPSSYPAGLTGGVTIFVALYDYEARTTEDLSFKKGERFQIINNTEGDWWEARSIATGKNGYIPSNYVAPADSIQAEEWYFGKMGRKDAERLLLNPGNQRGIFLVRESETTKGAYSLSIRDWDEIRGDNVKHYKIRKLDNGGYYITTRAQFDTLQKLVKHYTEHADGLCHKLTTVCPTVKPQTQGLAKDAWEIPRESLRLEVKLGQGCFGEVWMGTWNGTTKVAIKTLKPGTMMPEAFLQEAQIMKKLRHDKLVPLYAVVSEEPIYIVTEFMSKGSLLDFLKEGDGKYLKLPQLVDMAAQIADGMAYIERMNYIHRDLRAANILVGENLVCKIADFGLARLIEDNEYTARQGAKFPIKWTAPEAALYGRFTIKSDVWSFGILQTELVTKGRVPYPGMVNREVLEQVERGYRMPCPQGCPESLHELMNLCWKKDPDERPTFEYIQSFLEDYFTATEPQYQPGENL
Method in brief: as §1

EphA2 (h) = EphA2 (h) (Homo sapiens, UniProt P29317); conditions: EphA2(h); 100 μM
Method in brief: as §1

Fgr (h) = Fgr (h) (Homo sapiens, UniProt P09769); conditions: Fgr(h); 100 μM
Method in brief: as §1

HRRIKAWLKKIKALARQLGVAA (mammal) [MMI-0500]
% activity (266 human kinases [1]): 65%
% activity (266 human kinases [2]): 40%
% activity (266 human kinases [3]): 17%
% activity (266 human kinases [4]): 70%

YARAAARQARAKALNRQLGVA (mammal) [MMI-0200]
% activity (Yes (h)): 93%
% activity (EphA2 (h)): 95%
% activity (Fgr (h)): 71%

Reference: patent US20140072613A1, “Compositions and Methods for Treating Cutaneous Scarring” (priority 2012, published 2014)
